Source: publication doi:10.1101/2025.07.21.666041 (bioRxiv, 2025)
Values joined by “and” are separate entries in the source; they are usually repeats but may differ in a detail not shown here. Equal values may be shown once. Read-outs that look alike come from different tables or passages of the source.

Assays:
[1] = target: Measles virus (MeV) nonstructural protein C, full length, C-terminal GFP-Flag (measles virus) (UniProt P35977); assay: MST
[2] = target: T1, Measles virus (MeV) large (L) protein, full length (measles virus, UniProt P35975 1-2183); assay: SEC
T1 sequence (P35975 whole entry, the tested form may be a part): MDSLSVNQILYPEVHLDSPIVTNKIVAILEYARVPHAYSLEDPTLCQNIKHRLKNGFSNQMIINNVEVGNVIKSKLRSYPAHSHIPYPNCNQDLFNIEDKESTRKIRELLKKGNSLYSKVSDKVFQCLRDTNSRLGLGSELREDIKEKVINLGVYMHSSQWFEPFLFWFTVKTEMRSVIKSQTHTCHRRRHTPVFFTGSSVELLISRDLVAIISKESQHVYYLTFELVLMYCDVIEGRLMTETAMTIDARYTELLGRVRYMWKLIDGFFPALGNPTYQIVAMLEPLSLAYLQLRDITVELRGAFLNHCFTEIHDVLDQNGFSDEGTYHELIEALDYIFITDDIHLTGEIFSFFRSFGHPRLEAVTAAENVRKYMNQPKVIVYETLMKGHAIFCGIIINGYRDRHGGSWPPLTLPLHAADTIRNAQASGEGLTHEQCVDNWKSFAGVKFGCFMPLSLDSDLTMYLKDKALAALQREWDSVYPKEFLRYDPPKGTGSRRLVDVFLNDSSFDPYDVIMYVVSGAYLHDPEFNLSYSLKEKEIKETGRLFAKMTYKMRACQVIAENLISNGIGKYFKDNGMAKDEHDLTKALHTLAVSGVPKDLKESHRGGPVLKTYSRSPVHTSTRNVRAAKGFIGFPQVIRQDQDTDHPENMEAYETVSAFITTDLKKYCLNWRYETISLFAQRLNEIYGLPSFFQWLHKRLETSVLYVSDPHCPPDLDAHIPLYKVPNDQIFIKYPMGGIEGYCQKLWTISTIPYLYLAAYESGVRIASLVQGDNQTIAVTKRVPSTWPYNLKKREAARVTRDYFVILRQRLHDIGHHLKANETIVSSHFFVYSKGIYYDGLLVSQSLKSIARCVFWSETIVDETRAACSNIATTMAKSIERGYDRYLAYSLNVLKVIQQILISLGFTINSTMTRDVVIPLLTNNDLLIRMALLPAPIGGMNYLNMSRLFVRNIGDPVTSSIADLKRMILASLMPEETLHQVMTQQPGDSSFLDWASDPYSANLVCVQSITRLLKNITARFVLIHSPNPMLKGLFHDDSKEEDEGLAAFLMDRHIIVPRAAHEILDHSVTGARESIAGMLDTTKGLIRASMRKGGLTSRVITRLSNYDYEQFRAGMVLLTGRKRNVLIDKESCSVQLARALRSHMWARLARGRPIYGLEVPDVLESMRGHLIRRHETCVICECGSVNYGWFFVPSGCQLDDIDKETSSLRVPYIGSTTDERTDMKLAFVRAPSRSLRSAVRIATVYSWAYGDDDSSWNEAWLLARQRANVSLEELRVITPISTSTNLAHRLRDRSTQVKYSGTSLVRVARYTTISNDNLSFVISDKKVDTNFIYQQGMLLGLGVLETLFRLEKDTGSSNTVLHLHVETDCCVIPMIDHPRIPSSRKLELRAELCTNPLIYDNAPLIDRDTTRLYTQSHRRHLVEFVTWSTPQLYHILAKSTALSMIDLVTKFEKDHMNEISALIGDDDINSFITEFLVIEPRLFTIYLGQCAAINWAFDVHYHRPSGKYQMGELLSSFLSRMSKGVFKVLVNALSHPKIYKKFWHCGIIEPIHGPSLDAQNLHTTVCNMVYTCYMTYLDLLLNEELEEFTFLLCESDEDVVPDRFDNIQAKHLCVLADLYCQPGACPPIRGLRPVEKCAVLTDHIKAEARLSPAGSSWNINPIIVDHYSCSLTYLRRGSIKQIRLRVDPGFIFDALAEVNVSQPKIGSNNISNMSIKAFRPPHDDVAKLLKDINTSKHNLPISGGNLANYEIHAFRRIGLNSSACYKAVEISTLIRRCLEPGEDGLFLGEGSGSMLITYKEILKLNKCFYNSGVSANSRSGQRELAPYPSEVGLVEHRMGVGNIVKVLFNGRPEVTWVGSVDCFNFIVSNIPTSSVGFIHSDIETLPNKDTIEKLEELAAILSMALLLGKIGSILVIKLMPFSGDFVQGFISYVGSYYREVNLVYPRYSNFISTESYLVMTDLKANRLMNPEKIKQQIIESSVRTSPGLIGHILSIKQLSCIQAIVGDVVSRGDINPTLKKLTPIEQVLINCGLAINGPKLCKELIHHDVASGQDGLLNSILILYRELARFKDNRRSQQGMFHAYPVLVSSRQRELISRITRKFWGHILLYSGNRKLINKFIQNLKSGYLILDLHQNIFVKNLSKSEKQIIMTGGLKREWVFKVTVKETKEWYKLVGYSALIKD

[3] = target: Measles virus L–P complex (full-length L with truncated P 304–507) (measles virus, UniProt P35975;P35974); assay: MST
Measles virus L–P complex (full-length L with truncated P 304–507), sequence (P35975 whole entry, the tested form may be a part, one chain of several): as the sequence (P35975 whole entry, the tested form may be a part) above

[4] = target: the molecule itself; assay: cryo-EM structure
[5] = target: T1, Measles virus (MeV) large (L) protein, …; assay: cryo-EM structure
[6] = target: the molecule itself; assay: cryo-EM structure; remark: listed apart in the source

“Measles virus nucleoprotein N lacking the N-arm (residues 30–525) (from UniProt P35972 30-525) (domain or fragment)” was tested, and the Kd [1] was 4.57 µM and 3.92 µM.

B1: Measles virus (MeV) phosphoprotein P, full length (natural protein)
chain: MAEEQARHVKNGLECIRALKAEPIGSLAIEEAMAAWSEISDNPGQERATCREEKAGSSGLSKPCLSAIGSTEGGAPRIRGQGPGESDDDAETLGIPPRNLQASSTGLQCYYVYDHSGEAVKGIQDADSIMVQSGLDGDSTLSGGDNESENSDVDIGEPDTEGYAITDRGSAPISMGFRASDVETAEGGEIHELLRLQSRGNNFPKLGKTLNVPPPPDPGRASTSGTPIKKGTERRLASFGTEIASLLTGGATQCARKSPSEPSGPGAPAGNVPEYVSNAALIQEWTPESGTTISPRSQNNEEGGDYYDDELFSDVQDIKTALAKIHEDNQKIISKLESLLLLKGEVESIKKQINRQNISISTLEGHLSSIMIAIPGLGKDPNDPTADVEINPDLKPIIGRDSGRALAEVLKKPVASRQLQGMTNGRTSSRGQLLKEFQPKPIGKKMSSAVGFVPDTGPASRSVIRSIIKSSRLEEDRKRYLMTLLDDIKGANDLAKFHQMLMKIIMK
B1: binds [2].

B2: Measles virus (MeV) nonstructural protein C, full length, C-terminal GFP-Flag (natural protein)
chain: MSKTDWNASGLSRPSPSAHWPSRKLWQHGQKYQTTQDRSEPPAGKRRQAVRVSANHASQQLDQLKAVHLASAVRDLERAMTTLKLWESPQEISRHQALGYSVIMFMITAVKRLRESKMLTLSWFNQALMVIAPYQEETMNLKTAMWILANLIPRDMLSLTGDLLPSLWGSGLLMLKLQKEGRSTSS
In the case of B2, the Kd [3] is reported as ~0.32 µM and the “stoichiometry N” value [4] is reported as 2.

B3: Measles virus (MeV) phosphoprotein P, N-terminally truncated (residues 304–507) (domain or fragment)
chain: GDYYDDELFSDVQDIKTALAKIHEDNQKIISKLESLLLLKGEVESIKKQINRQNISISTLEGHLSSIMIAIPGLGKDPNDPTADVEINPDLKPIIGRDSGRALAEVLKKPVASRQLQGMTNGRTSSRGQLLKEFQPKPIGKKMSSAVGFVPDTGPASRSVIRSIIKSSRLEEDRKRYLMTLLDDIKGANDLAKFHQMLMKIIMK
With B3 the binding result [5] was “binds” and the “stoichiometry N” value [6] was 4.
